Data from patent publication US9629804B2, “Lipid formulations for delivery of messenger RNA” (Shire Human Genetic Therapies, Inc., priority 2013, dated 2017).

Test system: BHK-21 cells
Test: hSMN-1 western blot of BHK-21 cells transfected with hSMN mRNA
Type: cell-based
Conditions: one microgram mRNA, Lipofectamine 2000, 16-18 hours post-transfection
Protocol: Standard western blot procedures were followed employing various antibodies that recognizes hSMN protein, such as: (A) anti-SMN 4F11 antibody at 1:1,000 dilution; (B) Pierce PA5-27309a-SMN antibody at 1:1,000 dilution; and (C) LSBio C138149a-SMN antibody at 1:1,000 dilution. For each experiment one microgram of hSMN mRNA was transfected into ˜1×10^6 BHK-21 cells using Lipofectamine 2000. Cells were treated with OptiMem and harvested 16-18 hours post-transfection. Cell lysates were harvested, processed and loaded on to an 8-16% Tris Glycine gel. The gel was transferred using a PVDF membrane and treated with the respective primary antibody. Goat anti-mouse HRP antibody was used as the secondary antibody at 1:10,000 dilution for 45 minutes at room temperature followed by washing and development.

B1: hSMN mRNA: codon-optimized human Survival of Motor Neuron-1 messenger RNA (SEQ ID NO: 4), in vitro transcribed, Cap 1, poly(A) tail (nucleic acid)
chain: GGACAGAUCGCCUGGAGACGCCAUCCACGCUGUUUUGACCUCCAUAGAAGACACCGGGACCGAUCCAGCCUCCGCGGCCGGGAACGGUGCAUUGGAACGCGGAUUCCCCGUGCCAAGAGUGACUCACCGUCCUUGACACGAUGGCCAUGAGCAGCGGAGGCAGCGGCGGAGGAGUGCCCGAGCAGGAGGACAGCGUGCUGUUCAGGAGAGGCACCGGCCAGAGCGAUGACAGCGAUAUCUGGGACGAUACCGCUCUGAUCAAGGCCUACGACAAGGCCGUGGCCAGCUUCAAGCACGCCCUGAAAAACGGCGACAUCUGCGAGACCAGCGGCAAGCCCAAGACAACCCCCAAGAGAAAGCCCGCCAAGAAGAAUAAGAGCCAGAAAAAGAACACCGCCGCCAGCCUGCAGCAGUGGAAGGUGGGCGACAAGUGCAGCGCCAUCUGGAGCGAGGACGGCUGCAUCUACCCCGCCACCAUCGCCAGCAUCGACUUCAAGAGAGAGACCUGCGUGGUCGUGUACACCGGCUACGGCAACAGAGAGGAGCAGAACCUGAGCGACCUGCUGAGCCCCAUUUGUGAGGUGGCCAAUAACAUCGAACAGAACGCCCAGGAGAACGAGAAUGAAAGCCAGGUGAGCACCGACGAGAGCGAGAACAGCAGAUCUCCUGGCAACAAGAGCGACAACAUCAAGCCUAAGUCUGCCCCUUGGAACAGCUUCCUGCCCCCUCCUCCACCCAUGCCCGGACCCAGACUGGGACCCGGAAAACCUGGCCUGAAGUUCAACGGACCACCUCCCCCUCCACCUCCUCCCCCACCUCAUCUCCUGAGCUGCUGGCUGCCACCCUUCCCCAGCGGACCCCCUAUCAUCCCACCACCCCCUCCCAUCUGCCCCGACAGCCUGGACGACGCCGAUGCCCUGGGCAGCAUGCUGAUCAGCUGGUACAUGAGCGGCUACCACACAGGAUACUACAUGGGCUUCAGACAGAACCAGAAGGAGGGCAGAUGCUCCCACUCCCUGAACUGACGGGUGGCAUCCCUGUGACCCCUCCCCAGUGCCUCUCCUGGCCCUGGAAGUUGCCACUCCAGUGCCCACCAGCCUUGUCCUAAUAAAAUUAAGUUGCAUCAAAGCU
modifications: Cap 1, poly(A) tail
  western blot signal for hSMN-1 protein in transfected BHK-21 cells: strong signal for hSMN-1
